Assay results from the nanobody polyreactivity screen of Harvey et al. (2022).

Experiment: yeast display, Sf9 membrane polyspecificity reagent, FACS + sequencing; frameworks hold sequencing errors
Summary of the method: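 Galactose-induced (36–48 hours) yeast carrying a synthetic nanobody display library were exposed to 10% biotinylated, detergent-solubilized Sf9 membrane reagent at 4 °C for 1 hour. FACS followed streptavidin microbead enrichment, using low and high (top ~1%) gates for expression (anti-HA) and reagent binding (streptavidin). Colony PCR, MiSeq 2 × 250 sequencing and CDR-length filtering followed. Labels for polyreactivity reflect the gate of origin.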

Sequence | polyreactivity (PSR sort gate)
QVQLVESGGGLVQAGGSLRLSCAASGRIFYYYAMGWYRQAPVKERELVAAISQRGGRTYYADSVKVRFTISRDNAKNTVYLQMNSLKPEDTAVYYCNAYPVYGRYTHYGYGHWGQGTQVTVSS | high polyreactivity
QVQLVESGGGLVQAGGSLRLSCAASGRIFYYYAMVWYRQAPGKERELVAAITRRGGSTYYADSVKGRFTISRDNAMNTVYLLMNSLKPEDTAVYYCAKPVRTGWLDGDYWGQGTQVTVSS | low polyreactivity
QVQLVESGGGLVQAGGSLRLSCAASGRIFYYYGMGWYRQAPGKEREFVAAISLGGARTYYADSVKGRFTISRDNAKNTVYLQMNSLKPEDTAVYDCYARGIGRSTKWSSRDYWGQGTQVTVSS | high polyreactivity
QVQLVESGGGLVQAGGSLRLSCAASGRIFYYYMAWYRHAPGKERELVAAITRGGGTYADSVKGRFTISRDNAKNTVYLQMNSLKPEDTAVYYCAAYPRGARRLDYWGQGTQVTVSS | high polyreactivity
QVQLVESGGGLVQAGGSLRLSCAASGRIFYYYTMGWYRQAPGKERELVARINSSGSTNLRRLCEGALHNFTRQCEEYRLFTDEQPETGRYRVYYCNADTKRSSREYDYWGQGTQVTVSS | low polyreactivity
QVQLVESGGGLVQAGGSLRLSCAASGRIGVYAMGWYRQAPGKERELVAAIRRSGGNTYYADSVKGRFTISRDNAKNTVYLQMNSLKPEDTAVYYCAAGRPYRFYPRYDYWGQGTQVTVSS | high polyreactivity
QVQLVESGGGLVQAGGSLRLSCAASGRIIADNAMGWYRQAPGKERELVATISSGGSTSYADSVKGRFTISRDNAKNTVYLQMNSLKPDDTAVYYCATPYTGPSRPYDYWGQGTQVTVSS | low polyreactivity
QVQLVESGGGLVQAGGSLRLSCAASGRIIAWNDMGWYRQAPGKERELVAAIRWSSGTTYYADSVKGRFTISRDNAKNTVYLQINSLKPEDTAVYYCAAGGHARTWYAYYYWGQGTQVTVSS | low polyreactivity
QVQLVESGGGLVQAGGSLRLSCAASGRIIDIYAMGWYRQAPGKERELVAAITSGGSTYYADSVKGRFTISRDNAKNTVYLQMNSLKPEDTAVYYCAARLFADYWGQGTQVTVSS | low polyreactivity
QVQLVESGGGLVQAGGSLRLSCAASGRIIFTNAMGWYRQARGKERELVASISRGGVRTYYADSVKGRFTISRDNAKNTVYLQMNSLKPEDTAVYYCDKGYHLVLPPLPQYDYWGQGTQVTVSS | low polyreactivity
QVQLVESGGGLVQAGGSLRLSCAASGRIIGFNAMGWYRQAPGKERELVASIRTTGGSTRYADSVKGRFTISRDNAKNTVYLQMNSLIPEDTAVYYCAARWGKTLWQYNYWGQGTQVTVSS | high polyreactivity
QVQLVESGGGLVQAGGSLRLSCAASGRIIGIKAMGWYRLAPGKEMELVATITSGGDTNYADSVKGRFTISRDNAKNTVYIQMNSLKPEDTAVYYCNAESYGLGIGYEYWGQGTQVTVSS | low polyreactivity
QVQLVESGGGLVQAGGSLRLSCAASGRIIGLYTMGWYRQAPGKERELVARITSGDRTYYADSVKGRFTISRDNAKNTVYLQMNSLKPEDTAVYYCAAEFTYRYDYWGQGTQVTVSS | high polyreactivity
QVQLVESGGGLVQAGGSLRLSCAASGRIIGRYVMGWYRQAPGKERELVAAITRGGSTNYADSVKGRFTISRDNAKNTVYLQMNSLKPEDTAVYYCARAYSTVNRYSMYYWGQGTQVTVSS | high polyreactivity
QVQLVESGGGLVQAGGSLRLSCAASGRIIGSNTMGWYRQAPGKEREFVATISSSGGSTYYADSVKGRFTISRDNAKNTVYLQMNSLKPEDTSVYYCAAPWSSGSRGGYDYWGQGTQVTVSS | high polyreactivity
QVQLVESGGGLVQAGGSLRLSCAASGRIIGTYAMGWYRQAPGKERELVAAITARTSSTYYADSVKGRFTISRDNAKNTVYLQMNSLKPEDTAVYYCARTGSYRPSFRYDYWGQGTQVTVSS | high polyreactivity

Sequence | polyreactivity (PSR sort gate)
QVQLVESGGGLVQAGGSLRLSCAASGRIIGWYAMGWYRQAPGKERELVAAISQDATRTYYADSVTGRFTISRDHAKNTVYLQMLRLKPEDTAVYNCNVVYRYAGWSYDSWGQGTQVTVSS | high polyreactivity
QVQLVESGGGLVQAGGSLRLSCAASGRIIGYYAMGWYRQAPGKERELVAAITSGGRTNYADSVKGRFTISRDNAKNTVYLQMNSLKPEDTAVYYCAKEYPRYSSPYDYWGQGTQVTVSS | low polyreactivity
QVQLVESGGGLVQAGGSLRLSCAASGRIIGYYAMGWYRQAPGKERELVAAITSSGSRTYYADSVKGRFTISRDNAKNTVYLQMNSLKPEDTAVYYCATTKVYYSSKSSYYYWGQGTQVTVSS | high polyreactivity
QVQLVESGGGLVQAGGSLRLSCAASGRIIGYYTMGWYSQAPGKERELVAAITSGGRTYYADSVKGRFTISRDNAKNTVYLQMNSLKPEDTAVYYCAADWYYRSDYWGQGTQVTVSS | low polyreactivity
QVQLVESGGGLVQAGGSLRLSCAASGRIIGYYVMGWYRQAPGKERELVAAISSRTGTTYYADSVKGRFTISRDYAKNTVYLQMNRLKPEDTAVYYCNARELTTYWSFDYHHSEYDYWGQGTQVTVSS | high polyreactivity
QVQLVESGGGLVQAGGSLRLSCAASGRIIKFYAMGWNRQAPGKERELVAVIRSVTRTKYADSVKGRFTISRDNAKNTVYLQLNSLKPEDTAVYYCAAREVGKMDYWGQGTQVTVSS | low polyreactivity
QVQLVESGGGLVQAGGSLRLSCAASGRIIKYYTMGWYRQAPGKERELVAAISRGGTTNYADSVKGRFTISRDNAKNTVYLQMNSLKPEDTAVYYCNAVGFYAANTFDYWGQGTQVTVSS | high polyreactivity
QVQLVESGGGLVQAGGSLRLSCAASGRIIPAYDMGWYRQAPGKERELVAAISQGAGGSTYYADSVKGRFTISRDNAKNTVYLQMISLKPEDTAVYSCAREGESGVVDTYGHVYVYEYDYWGQGTQVTVSS | low polyreactivity
QVQLVESGGGLVQAGGSLRLSCAASGRIIPSYAMGWYRQAPGKERELVAAISDSDGSTYYADSVKGRFTISRDNAKNTVYLQMNSLKPEDTAVYYCAAEGSYPAYDYWGQGTQVTVSS | low polyreactivity
QVQLVESGGGLVQAGGSLRLSCAASGRIIRTYSMGRYRQAPGKERELVAVISRRGGRTYYADSVKGRFTFSRDNAKNTVYVQINSLKPEDTAVYYCNADYSGGGGGYWGQGTLVTVSS | high polyreactivity
QVQLVESGGGLVQAGGSLRLSCAASGRIITAYAMGWYRQAPGKEREFVAAINVSGGSTYYADSVKGRFTISRDNAKNTVYLQMDSLKPEDSAVYYCNADYYYYDIYWWQMDYWGQGTQVTVSS | low polyreactivity
QVQLVESGGGLVQAGGSLRLSCAASGRIITAYYAMGWSRQAPGKERELVASISSSGTSTYADSVKGRFTISRDNAKNTVYLQMNSLKPEDTAVYYCATRKLRTRRYDYGYWGQGTQVTVSS | low polyreactivity
QVQLVESGGGLVQAGGSLRLSCAASGRIITGNAMGWYRQAPGKERELVATITRRGGSTYYADSVKGRFTISRDNAKNTVYLQMNSLKPEDTAVYYCAANRLFSYDKYGYWGQGTQVTVSS | high polyreactivity
QVQLVESGGGLVQAGGSLRLSCAASGRIITKYTMGWYRQAPGKERELVAAISRSDRTNYADSVKGRFTISRDNAKNTVYLQMNSLKPEDTAVYYCAAQFTVLWYEYYYWGQGTQVTVSS | high polyreactivity
QVQLVESGGGLVQAGGSLRLSCAASGRIIVHYAMGWYRQAPGKERELVAAISWSGGSTYYADSVKGRFTISRDIGNNTVYLQMNSLKPEDTAVYYCNALDPLYFRYDYWGQGTQVTVSS | low polyreactivity
QVQLVESGGGLVQAGGSLRLSCAASGRIIYNNAMGWSRQAPGTERELVAAISIGGITYYADSVKGRFTISRDNAKNTVYLQMNSLKPEDTAVYYCAALNTGYRTRRLGRDYWGQGTQVTVSS | low polyreactivity
